Data from publication doi:10.1101/2021.04.01.437942 (bioRxiv, 2021).

Molecular target: SARS-CoV-2 RBD, truncated version (residues 333–529) (SARS-CoV-2, UniProt P0DTC2)
Assay: crystal structure
Details: both partners purified

B1: COVA1–16 Fab (Fab, V domains shown)
VH: QVQLVQSGAEVKKPGASVKVSCKASGYTFTSYYMHWVRQAPGQGLEWMGIINSSGGSTSYAQKFQGRVTMTRDTSTSTVYMELSSLRSEDTAVYYCARPPRNYYDRSGYYQRAEYFQHWGQGTLVTVSS
VL: DIQLTQSPSSLSASVGDRVTITCQASQDISNYLNWYQQRPGKAPKLLIYDASNLETGVPSRFSGSGSGTDFTFTISSLQPEDIATYYCQQYDNPPLTFGGGTKLEIK
notes: also called Fab COVA1–16
- binding result: binds
